Experimental data published in PMC8811898, “Structural Insights into Methylated DNA Recognition by the Methyl-CpG Binding Domain of MBD6 from Arabidopsis thaliana”.
Positions count from the first letter of the chain named.

Legend:
AtMBD6 MBD domain WT = molecular target: T1, AtMBD6 MBD domain WT (Arabidopsis thaliana, UniProt Q9LTJ1 78-140); assay: NMR titration (1H-15N HSQC); 20 mM Na phosphate pH 6.5, 150 mM NaCl, 20 C; two-state fit; NMR: 20 mM Na phosphate pH 6.5, 150 mM NaCl, 5% D2O, 20 C; EMSA: 25 mM Tris, 25 mM boric acid, 150 mM NaCl, 5% glycerol, 1 mM DTT, 4 C, 30 min; conditions: protein: recombinant; tags: GST removed by HRV3C; N-terminal GPLGS remains; blunt; self-complementary
T1 sequence: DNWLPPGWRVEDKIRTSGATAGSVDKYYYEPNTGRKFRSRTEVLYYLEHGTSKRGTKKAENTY

AtMBD6 MBD domain S100R = molecular target: T2, AtMBD6 MBD domain S100R (Arabidopsis thaliana, UniProt Q9LTJ1 78-140, S100R); assay: NMR titration (1H-15N HSQC); slow exchange, increased affinity vs WT; no reliable Kd from NMR, ITC or FP; NMR: 20 mM Na phosphate pH 6.5, 150 mM NaCl, 5% D2O, 20 C; EMSA: 25 mM Tris, 25 mM boric acid, 150 mM NaCl, 5% glycerol, 1 mM DTT, 4 C, 30 min; conditions: protein: recombinant; tags: GST removed by HRV3C; N-terminal GPLGS remains; blunt; self-complementary
T2 sequence: T1 sequence with S23R

B1: MG (dsDNA)
DNA 1: GGTATGCGCATACC
DNA 2: GGTATGCGCATACC
modifications: 5-methylcytosine at position 7 of both strands (symmetric methyl-CpG)
- Kd (AtMBD6 MBD domain WT): 40.2 ± 0.5 µM
- binding result (AtMBD6 MBD domain S100R): binds
